The data set relates to ATP. The data set is described as follows: switch fluorescence ratio, 500 uM ATP over buffer (Cy3 cluster intensity, sum of 5 cycles each) (fold (ratio)); higher = stronger signal-on switching upon ATP binding; sequences stand for … in TCGTCGGCAGCGTCAGATGTGTATAAGAGACAGTTTTTTTTTTTTTTTTTTTTTTTTT…TC. The note with it: aptamer strand: ATP DNA aptamer (quencher-CACCTGGGGGAGTATTGCGGAGGAAGG + anchor), 100 nM annealed; ATP concentration: 500 uM. In short, it runs like this: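 Between each of five buffer/ATP cycles, the flow-cell was stripped with NaOH and re-annealed. Each cycle imaged Cy3-labelled switching-strand clusters, annealed to 100 nM quencher-labelled ATP aptamer on a modified Illumina MiSeq flow-cell, first in selection buffer and then after 15 min with 500 uM ATP at 22 °C. The fluorescence ratio is summed target-cycle over summed buffer-cycle Cy3 intensity per cluster, averaged per switch-domain sequence, with clusters outside 100-1000 RFU excluded.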

Drawing on the supplement of paper PMC10126150, this text covers switch fluorescence ratio for 120 sequences.

± gives the standard deviation of the averaged measurements.
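Further: ATP exposure 15 min at 22 °C before imaging.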

Regarding TTAGAGGGTC, the switch fluorescence ratio was 0.9952 ± 0.0013.

Take TTAGATCATG: the switch fluorescence ratio came out at 1.01 ± 0.023.

On to TTAGATGGTG, for which the switch fluorescence ratio came to 1.02 ± 0.033.

Turning to TTAGATTCGG, the switch fluorescence ratio came to 0.997 ± 0.039.

Regarding TTAGATTGCA, the switch fluorescence ratio came out at 1.001 ± 0.0083.

With TTAGCAAATA, the switch fluorescence ratio is 1.155 ± 0.0099.

On to TTAGCAGGTG, for which the switch fluorescence ratio amounted to 2.78 ± 0.1.

With TTAGCATCTA, the switch fluorescence ratio amounted to 0.999 ± 0.018.

For TTAGCCACGC, the switch fluorescence ratio is 0.9902 ± 0.0029.

As for TTAGCGAGTT, the switch fluorescence ratio stood at 0.979 ± 0.014.

Consider TTAGCGCTGG, for which the switch fluorescence ratio amounted to 1.01 ± 0.015.

Regarding TTAGCGGCAG, the switch fluorescence ratio is 0.9883 ± 0.0034.

As for TTAGCGGTAT, the switch fluorescence ratio is 1.08 ± 0.087.

On to TTAGCGGTGT, for which the switch fluorescence ratio stood at 1.07 ± 0.14.

As for TTAGCGTGCG, the switch fluorescence ratio came to 0.953 ± 0.054.

For TTAGCTGCGG, the switch fluorescence ratio came to 0.9951 ± 0.0042.

Turning to TTAGCTGGCA, the switch fluorescence ratio worked out at 1 ± 0.027.

As for TTAGGAAAGG, the switch fluorescence ratio was determined as 1.06 ± 0.12.

Take TTAGGAAAGT: the switch fluorescence ratio was 0.9873 ± 0.0075.

As for TTAGGACGCT, the switch fluorescence ratio is 1.03 ± 0.036.

Regarding TTAGGACTTT, the switch fluorescence ratio amounted to 0.975 ± 0.037.

Take TTAGGAGAAA: the switch fluorescence ratio was 1.03 ± 0.053.

For TTAGGATATA, the switch fluorescence ratio turned out to be 1 ± 0.046.

As for TTAGGATG, the switch fluorescence ratio was determined as 1.01 ± 0.0092.

For the sequence TTAGGCCAGG, the switch fluorescence ratio stood at 1.05 ± 0.017.

On to TTAGGGAAAA, for which the switch fluorescence ratio amounted to 0.983 ± 0.038.

In the case of TTAGGGAATT, the switch fluorescence ratio is 0.989 ± 0.046.

TTAGGGGACG: the switch fluorescence ratio stood at 0.981 ± 0.04.

Turning to TTAGGGGATT, the switch fluorescence ratio is 1.01 ± 0.027.

Take TTAGGGTCGG: the switch fluorescence ratio was found to be 1 ± 0.036.

On to TTAGGGTGGT, for which the switch fluorescence ratio is 0.99 ± 0.018.

As to TTAGGGTTGT, the switch fluorescence ratio amounted to 1 ± 0.023.

In the case of TTAGGTGCGT, the switch fluorescence ratio stood at 1.08 ± 0.028.

TTAGGTGGGC: the switch fluorescence ratio stood at 1.08 ± 0.021.

On to TTAGGTTATT, for which the switch fluorescence ratio was 0.9786 ± 0.0027.

For TTAGGTTGCA, the switch fluorescence ratio was found to be 0.9809 ± 0.0092.

On to TTAGTAAGGC, for which the switch fluorescence ratio came out at 1.22 ± 0.2.

Turning to TTAGTAATTC, the switch fluorescence ratio came out at 1.12 ± 0.15.

As for TTAGTAGATT, the switch fluorescence ratio turned out to be 0.991 ± 0.036.

Turning to TTAGTATTGG, the switch fluorescence ratio came out at 1.02 ± 0.019.

TTAGTCCGTG: the switch fluorescence ratio worked out at 1.01 ± 0.036.

On to TTAGTGAGGG, for which the switch fluorescence ratio was 0.99 ± 0.042.

Consider TTAGTGGACT, for which the switch fluorescence ratio was determined as 1.02 ± 0.016.

TTAGTGGCCC: the switch fluorescence ratio amounted to 0.99 ± 0.016.

TTAGTGGCTT: the switch fluorescence ratio turned out to be 0.994 ± 0.035.

TTAGTGGGAG: the switch fluorescence ratio was 0.966 ± 0.033.

Turning to TTAGTGTGTG, the switch fluorescence ratio stood at 0.994 ± 0.011.

As for TTAGTTATTT, the switch fluorescence ratio is 0.999 ± 0.035.

For the sequence TTAGTTCCTT, the switch fluorescence ratio was 1.01 ± 0.024.

In the case of TTAGTTGAGG, the switch fluorescence ratio came out at 0.987 ± 0.05.

As for TTAGTTGGAC, the switch fluorescence ratio was 1.03 ± 0.038.

In the case of TTAGTTGGGC, the switch fluorescence ratio was 1.01 ± 0.069.

As for TTAGTTTAAG, the switch fluorescence ratio worked out at 0.999 ± 0.017.

Take TTAGTTTAGG: the switch fluorescence ratio was found to be 0.9824 ± 0.0096.

Consider TTAGTTTCAG, for which the switch fluorescence ratio was 1.012 ± 0.0033.

As to TTAGTTTGCA, the switch fluorescence ratio came out at 1.02 ± 0.022.

For TTAGTTTGCT, the switch fluorescence ratio came to 1.01 ± 0.019.

Turning to TTAGTTTTGG, the switch fluorescence ratio amounted to 1.04 ± 0.046.

With TTATAAAAGT, the switch fluorescence ratio stood at 0.962 ± 0.011.

For TTATAAATAT, the switch fluorescence ratio was determined as 1.08 ± 0.044.

Take TTATAAGCTT: the switch fluorescence ratio came to 0.997 ± 0.021.

TTATAAGGTT: the switch fluorescence ratio was found to be 1.02 ± 0.023.

With TTATAATAG, the switch fluorescence ratio is 1.039 ± 0.0073.

Take TTATAATCCG: the switch fluorescence ratio worked out at 0.988 ± 0.031.

Take TTATAATGGC: the switch fluorescence ratio was found to be 1.02 ± 0.08.

As to TTATACATGG, the switch fluorescence ratio stood at 1.07 ± 0.0024.

In the case of TTATACGGAA, the switch fluorescence ratio worked out at 1.11 ± 0.057.

With TTATACGGAG, the switch fluorescence ratio came out at 1.01 ± 0.025.

For the sequence TTATACTCTT, the switch fluorescence ratio was determined as 1.01 ± 0.026.

Consider TTATAGAATG, for which the switch fluorescence ratio worked out at 0.985 ± 0.038.

Take TTATAGACAG: the switch fluorescence ratio is 0.997 ± 0.034.

As to TTATAGCCCA, the switch fluorescence ratio stood at 1.0151 ± 0.00025.

As for TTATAGCCTT, the switch fluorescence ratio worked out at 1.04 ± 0.046.

Consider TTATAGGAAC, for which the switch fluorescence ratio is 1.02 ± 0.013.

TTATAGGGAG: the switch fluorescence ratio was found to be 0.97261 ± 0.00039.

Consider TTATAGGTTG, for which the switch fluorescence ratio is 0.984 ± 0.02.

In the case of TTATAGGTTT, the switch fluorescence ratio came out at 1 ± 0.019.

Turning to TTATAGTCGT, the switch fluorescence ratio came to 1 ± 0.015.

Consider TTATAGTGGG, for which the switch fluorescence ratio came out at 1 ± 0.022.

For TTATAGTTAT, the switch fluorescence ratio came to 1.001 ± 0.0029.

Regarding TTATATTAAG, the switch fluorescence ratio stood at 1.01 ± 0.031.

Turning to TTATATTAGC, the switch fluorescence ratio was found to be 1 ± 0.054.

On to TTATATTAGT, for which the switch fluorescence ratio came out at 0.9919 ± 0.0056.

With TTATATTCTT, the switch fluorescence ratio worked out at 0.9964 ± 0.0042.

In the case of TTATCACTCG, the switch fluorescence ratio was found to be 1.01 ± 0.0054.

Consider TTATCGAGAA, for which the switch fluorescence ratio was found to be 0.9879 ± 0.0024.

Turning to TTATCGCTTG, the switch fluorescence ratio is 0.9974 ± 0.003.

Consider TTATCGGGG, for which the switch fluorescence ratio worked out at 0.942 ± 0.053.

For TTATCTAAGT, the switch fluorescence ratio came to 1 ± 0.036.

Consider TTATCTAGTG, for which the switch fluorescence ratio was 0.9894 ± 0.0054.

Consider TTATCTGGAA, for which the switch fluorescence ratio worked out at 1.06 ± 0.055.

As to TTATCTGTTT, the switch fluorescence ratio came out at 1.02 ± 0.028.

As to TTATCTTAAT, the switch fluorescence ratio is 1.01 ± 0.015.

Take TTATCTTACA: the switch fluorescence ratio stood at 0.996 ± 0.059.

As to TTATGAAAGC, the switch fluorescence ratio came out at 1.02 ± 0.042.

TTATGAAGAT: the switch fluorescence ratio worked out at 0.963 ± 0.029.

Consider TTATGAGGCT, for which the switch fluorescence ratio was determined as 1.01 ± 0.013.

As to TTATGATGGT, the switch fluorescence ratio stood at 0.992 ± 0.018.

TTATGCAAAG: the switch fluorescence ratio stood at 1.1 ± 0.15.

As for TTATGCATCG, the switch fluorescence ratio turned out to be 0.9768 ± 0.0047.

Turning to TTATGCGGAT, the switch fluorescence ratio was 1.02 ± 0.015.

Turning to TTATGCGGTT, the switch fluorescence ratio was determined as 0.992 ± 0.02.

As to TTATGCTATG, the switch fluorescence ratio came out at 1.055 ± 0.0034.

In the case of TTATGCTATT, the switch fluorescence ratio came to 1 ± 0.022.

Take TTATGCTTTT: the switch fluorescence ratio came out at 1.0043 ± 0.00054.

As for TTATGGATGT, the switch fluorescence ratio came to 1.03 ± 0.013.

For the sequence TTATGGGAAC, the switch fluorescence ratio came out at 0.97391 ± 0.00081.

In the case of TTATGGGAGA, the switch fluorescence ratio came out at 1.04 ± 0.042.

TTATGGGGAA: the switch fluorescence ratio was determined as 0.987 ± 0.015.

As for TTATGGGGGA, the switch fluorescence ratio is 1.01 ± 0.018.

Consider TTATGGGGGG, for which the switch fluorescence ratio was found to be 1.01 ± 0.042.

On to TTATGGTGT, for which the switch fluorescence ratio worked out at 1.0044 ± 0.00076.

In the case of TTATGTAAGG, the switch fluorescence ratio turned out to be 0.971 ± 0.014.

As for TTATGTATGT, the switch fluorescence ratio came to 0.996 ± 0.017.

As for TTATGTGTTT, the switch fluorescence ratio amounted to 1.014 ± 0.006.

TTATGTTGTT: the switch fluorescence ratio is 1 ± 0.018.

TTATTAAAAC: the switch fluorescence ratio came out at 0.999 ± 0.013.

For the sequence TTATTAAAAG, the switch fluorescence ratio was 1.2 ± 0.39.

For TTATTAAGTG, the switch fluorescence ratio was determined as 1 ± 0.017.

As for TTATTAATCT, the switch fluorescence ratio is 0.9974 ± 0.0049.
